Data published in patent US20180334496A1 (KODIAK SCIENCES, published 2018).

B1: KCD077 (antibody, V domains shown)
VH: EVQLQQSGAELVRPGALVKLSCKASGFNIKDYYMHWVKQRPEQGLEWIGWIDPENGHTIYDPRFQGKATITADTSSNTAYLQLSSLTSEDTAVYYCSRGLLGFAYWGQGTLVTVSA
VL: DIVMTQSQKFMSTSVGDRVSVTCKASQNVGTNVAWYQQKPGQSPKALIYTASYRYSGVPDRFTGSGSGTDFTLTISNVQSEDLAEYFCQQYNSYPHMYTFGGGTKLEIK
B2: KCD133 (antibody, V domains shown)
VH: EVQLVESGGGLLQPKGSLKLSCAASGFTFNTYAMNWVRQAPGKGLEWVARIRSKSSNYATYYADSVKDRFTISRDDSQSMFYLEMNNLKTEDTAMYYCVRDRGYYYVMDYWGQGTSVTVSS
VL: DIVLTQSPASLAVSLGQRATISCRASESVEYYGTSLMQWYQQKPGQPPKLLINAASNVESGVPARFSGSGSGTDFSLNIHPVEEDDIAMYFCQQSRKVPWTFGGGTKLEIK
B3: KCD219 (antibody, V domains shown)
VH: QVQLQQSGPELVKPGASVKISCKASGYTFTDYYINWVKQRPGQGLEWIGWIFPGSGSTYYNEKFKGKATLTVDKSSSTAYMLLSSLPSEDSAVYFCARYGYYGSSFYAMDYWGQGTSVTVSS
VL: DIQMTQSPASLSVSVGETVTITCRASENIYSNLAWYQQKQGKSPQLLVYAATNLADGVPSRFSGSGSGTQYSLKINSLQSEDFGSYYCQHFWGSPPTFGGGTKLEIK
B4: KCD225 (antibody, V domains shown)
VH: QVQLQQSGPELVKPGASVKISCKASGYTFTDYYINWMKQRPGQGLEWIGWIFPGSDSTYYNEKFKGKATLTVDKSSSTAYMLLSSLTSEDSAVYFCARLGYYSHSYYAMDYWGQGTSVTVSS
VL: DIQMTQSPASLSVSTGETVTITCRASENIYSNLAWFQQKQGKSPQLLVYAATNLADGVPSRFSGSGSGTQYSLKITSLQSEDFGSYYCQHFWGTPLTFGAGTKLDLK
B5: KCD004 (antibody, V domains shown)
VH: EVQLQQSGAELVRPGSSVKMSCKTSGKTFTSHGINWVKQRPGQGLEWIGYIYIGNGYNEYNEKFKGKATLTSDTSSSTAYMQLSSLTFEDSAIYFCVRKAYGNYGFDDWGQGTTLTVSS
VL: DIQMTQSPTSLSASLGESVSLTCRASQEISGYLNWLQQKPDGSIKRLIYAASTLDSGVPKRFSGSRSGSDYSLTISSLESEDFADYYCLQYANYPFTFGSGTKLEVK
notes: also called OG2063
B6: KCD126 (antibody, V domains shown)
VH: EVQLQQSGAELVRPGSSVKMSCKTSGKTFTSHGINWVKQRPGQGLEWIGYIYIGNGYNEYNEKFKGKATLTSDTSSSTAYMQLSSLTFEDSAIYFCVRKAYGNYGFDDWGQGTTLTVSS
VL: DIQMTQSPTSLSASLGESVSLTCRASQEISGNLNWLQQKPDGSIKRLIYAASTLDSGVPKRFSGSRSGSDYSLTISSLESEDFADYYCLQYANYPFTFGSGTKLEVK
B7: KCD125 (antibody, V domains shown)
VH: EVQLQQSGAELVRPGSSVKMSCKTSGNTFTSYGINWVKQRPGQGLEWIGYIYIGTGYTEYNEKFKGKATLTSDTSSSTAYMQLSSLTSEDSAIYFCVRKAYGNYGFDYWGQGTTLTVSS
VL: DIQMTQSPSSLSASLGERVSLTCRASQEISGYLSWLQQKPDGTIKRLIYAASTLDSGVPKRFSGSRSGSDYSLTISSLESEDFADYYCLQYASYPFTFGSGTKLEIK
B8: KCD205 (antibody, V domains shown)
VH: EVQLQQSGAELVRPGSSVKMSCKTSGNTFTSHGINWVKQRPGQGLEWIGYIYIGNGYNEYNEKFKGKATLTSDTSSSTAYMQLSSLTSEDSAIYFCVRKAYGNYGFDDWGQGTTLTVSS
VL: DIQMTQSPSSLSASLGERVSLTCRASQEISGYLSWLQQKPDGTIKRLIYAASTLDSGVPKRFSGSSSGSDYSLTISSLESDDFADYYCLQYASYPFTFGSGTKLEIK
B9: KCD014 (antibody, V domains shown)
VH: EVKLVESGGGLVQPGGSLKLSCAASGFTFSSYIMSWVRQTPEKRLEWVAYITNGGGNTYYPDTIKGRFTISRDNAKNTLYLQMSSLKSEDTAMYYCARHGTGYAMDYWGQGTSVTVSS
VL: EIVLTQSPTTMAASPGEKITITCSASSSISSNYLHWYQQKPGFSPKLLIYRTSNLASGVPARFSGSGSGTSYSLTIGTMEAEDVATYYCQQGSSIPLTFGAGTKLELK
B10: KCD066 (antibody, V domains shown)
VH: QVQLQQSAAELARPGASVKMSCKASGYTFTDYTMHWVKQRPGQGLEWIGYINPSGGYTDYNQKFKDKTALTADKSSSTAYMQLSSLTSEDSAVYYCARRRDYWFAYWGQGTLVTVSA
VL: DIVMSQSPSSLAVSVGEKVTMSCKSSQSLLYSGNQKNYLAWYQQKPGQSPKLLIYWASTRESGVPDRFTGSGSGTDFTLTISSVKAEDLAVYYCHQYYSYLTFGAGTKLELK
B11: KCD019 (antibody, V domains shown)
VH: QVQLQQSGAELARPGASVKMSCKASGYTFATYTIHWVKQRPGQGLEWIGYLNLRNDYTHYNQKFRDKAALTADKSSSTAYMQLSSLTSEDSAVYNCAFRLGNDRQGWYFDVWGAGTTVTVSS
VL: DIVMTQAHRFMSTSVGDRVIISCKASQDVGTAVAWYQQTPGQSPKILIYWTSTRHTGVPDRFTGSRSGTDFTLTISNVQSEDLADYFCQQYTTYPLTFGGGTKLEIK
B12: KCD114 (antibody, V domains shown)
VH: EVQLQQSGPELVKPGASVKISCKASGYSFTAYYMNWVKQSPEKSLEWIGDINPSTGGTTYNQNFKAKATLTVDKSSSTAYMHLKSLTSEDSAVYYCATTYYSGNSYVGFAYWGQGTLVTVSA
VL: DIVMTQSHKFMSTSVGDRVSITCKASQDVSTAVAWYQQKPGQSPKLLIFWASTRHTGVPDRFTGSGSGTDYTLTISSVQAEDLALYYCQQHYSTPWTFGGGTKLEIK
B13: KCD030 (antibody, V domains shown)
VH: QVQLQQSGAELAKPGASVKMSCKASGYTFTNYWMHWVKQRPGQGLEWIGYINPSIGYTEYNQKFKDKATLTADKSSSTAYMQLSSLTSEDSAVFYCATFIYYAMDYWGQGTSVTVSS
VL: DIQMNQSPSSLSASLGDTITITCHASQNINVWLSWYQQKPGNIPKLLIYKASNLHTGVPSRFSGSGSGTGFTLTISSLQPEDIATYYCQQGQSYPYTFGGGTKLEIK
B14: KCD011 (antibody, V domains shown)
VH: EVKLVESGGGLVQPGGSLKLSCAASGFTFSSNTMSWVRQTPEKRLEWVAYITNGGGSTYYPDTVKGRFTISRDNARNTLYLQMSSLKSEDTAMYYCARHDYYTMDYWGQGTSVTVSS
VL: DIQMTQSPSSLSASLGGKVTITCKASQDINKYIAWYQHKPGKGPRLLIHYTSTLQPGIPSRFSGSGSGRDYSFSISNLEPEDIATYYCLQYDNLLYTFGGGTKLEIK
B15: KCD063 (antibody, V domains shown)
VH: EVKLVESGGGLVQPGGSLKLSCAASGFIFSSYIMSWVRQTPEKRLEWVAYITNGGGSTYYPDTVKGRLTISRDNAKNTLYLQMSSLKSEDTAMYYCVRHAHYYAMDYWGQGTSVTVSS
VL: DIQMTQSPSSLSASLGGKVTITCKASQDINKYITWYQHKPGKGPRLLIHYTSTLQPGIPSRFSGSGSGRDYSFSISNLEPEDIATYYCLQYDNLLYTFGGGTKLEIK
B16: KCD057 (antibody, V domains shown)
VH: EVKLVESGGGLVQPGGSLKLSCAASGFTFSNYIMSWVRQTPEKRLEWVAYITNGGGATYYPDTVKGQFTISRDNAKNTLYLQMSSLKSEDTAIYYCARHDFYALDFWGQGTSVTVSS
VL: DIQMTQSPSSLSASLGGKVTITCKASQDINKYIAWYQHKPGKGPRLLIHYTSTLQPGIPSRFSGSGSGRDYSFSISNLEPEDIATYYCLKYDNLLYTFGGGTKLEIK
B17: KCD056 (antibody, V domains shown)
VH: EVKLVESGGGLVQPGGSLKVSCAASGFTFSTYTMSWVRQTPEKRLEWVAYITNGGGSTYYPDTEKGRFTISRDNAKNTLYLQMSSLKSEDTAMYYCVRHDYYAMDYWGQGTSVTVSS
VL: DIQMTQSPSSLSASLGGKVTITCKASQDINKYIAWYQHKPGKGPRLLIHYTSTLQPGIPSRFSGSGSGRDYSFSISNLEPEDIATYYCLQYDNLLYTFGGGTTLEIK
B18: KCD058 (antibody, V domains shown)
VH: EVKLVESGGDLVQPGGSLKLSCAASGFTFSRYIMSWVRLTPEKRLEWVAFITNGGGNTYHPDTVKGRFTISRDNANNTLYLQMSSLKSEDTAIYYCARHDYYALDYWGQGTSVTVSS
VL: DIQMTQSPSSLSASLGGKVTITCKASQDINKYIAWYQHKPGKGPRLLIHYTSTLQPGIPSRFSGSGSGRDYSFSISNLEPEDIATYYCLQYDNLLYTFGGGTKLEIK

Key:
[1] = molecular target: T1, recombinant cynomolgus CFD, His-tagged (cynomolgus); experiment: SPR MX96
T1 construct: also called rcyCFD-His; recombinant Cyno-CFD

[2] = molecular target: T2, human complement factor D purified from serum (human, UniProt P00746 26-253); experiment: SPR MX96
T2 construct: serum-purified (CompTech); also called hCFD-Comptech; CFD
T2 sequence (P00746 26-253): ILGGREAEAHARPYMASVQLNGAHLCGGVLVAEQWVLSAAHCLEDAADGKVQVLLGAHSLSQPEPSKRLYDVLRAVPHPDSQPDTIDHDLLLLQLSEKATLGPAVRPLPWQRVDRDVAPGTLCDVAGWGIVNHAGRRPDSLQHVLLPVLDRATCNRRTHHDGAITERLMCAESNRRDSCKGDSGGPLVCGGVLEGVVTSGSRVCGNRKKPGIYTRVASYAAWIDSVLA

[3] = molecular target: T3, recombinant human CFD mutant 1 (R157A, R207A), His-tagged (human, UniProt P00746 26-253); experiment: SPR MX96
T3 construct: positions are linear positions in the mature protein; also called rhCFD-mut1-His; Mut1
T3 sequence (P00746 26-253 R182A/R232A limits assumed): as the sequence (P00746 26-253) above, with R157A, R207A counted along it

[4] = molecular target: T4, recombinant human CFD, His-tagged (human, UniProt P00746 26-253); experiment: SPR MX96
T4 construct: also called rhCFD-His
T4 sequence (P00746 26-253 limits assumed): as the sequence (P00746 26-253) above

[5] = molecular target: T5, human Complement Factor D (CFD), purified from human serum (human, UniProt P00746 26-253); experiment: SPR MX96, mAbs amine-coupled, CFD injected
T5 construct: serum purified (CompTech A136); also called serum purified CFD; hCFD-Comptech
T5 sequence (P00746 26-253): as above

Binder	Kd [1] [nM]	Kd [2] [nM]	Kd [3] [nM]	Kd [4] [nM]	Kd [5] [nM]
B1	14	17	13	–	–
B2	84	12	–	14	–
B3	–	–	–	–	4.3
B4	–	–	–	–	8.67
B5	0.92	0.35	0.14	0.24	–
B6	0.93	0.34	0.18	0.29	–
B7	4.1	3.8	2.7	2.5	–
B8	3.3	3	1.8	1.9	–
B9	–	22	–	20	–
B10	4	2.9	1.2	1.9	–
B11	47	7.2	180	61	–
B12	8.4	8.1	8.4	3.8	–
B13	–	4.2	1.3	3.8	–
B14	38	77	110	59	–
B15	24	33	–	–	–
B16	3.1	2.7	2.5	2.7	–
B17	31	60	84	52	–
B18	11	9.9	7.6	9.4	–
